From the supplement of paper PMC10724198
± gives the standard deviation of the averaged measurements.

What was measured:
Saccharomyces cerevisiae [1] = test: protein stability index of tFT-peptide fusion (C-terminal peptide) (PSI (0-1 scale)); higher = more stable (slower turnover)
Experimental: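 MPS profiling in S. cerevisiae of the tFT-X12 degron library: putative degron peptides plus stable controls, 12 aa, fused to the C-terminus of a sfGFP-mCherry timer. Cells are FACS-sorted into 8 mCherry/sfGFP bins and deep-sequenced. PSI runs from 0 (unstable) to 1 (stable). Backgrounds are wild type, das1Δ and doa10Δ at 30 °C, and wild type, das1Δ, cdc34-1 and cdc53-1 at 37 °C; 2-3 technical replicates each.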

Saccharomyces cerevisiae [2] = test: as above; conditions: genetic background: wild type; temperature: 30 C
[3] = genetic background: cdc34-1, temperature: 37 C
[4] = genetic background: cdc53-1, temperature: 37 C
[5] = genetic background: das1 deletion, temperature: 30 C
[6] = genetic background: das1 deletion, temperature: 37 C
[7] = genetic background: doa10 deletion, temperature: 30 C
[8] = genetic background: wild type, temperature: 30 C
[9] = genetic background: wild type, temperature: 37 C
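Note: PSI is a weighted mean of sequencing reads over stability bins, variants kept only with over 10 reads, mCherry proximal and sfGFP distal, peptide attached via GGGS linker.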

Sequence	protein stability index (Saccharomyces cerevisiae [1]; [3])	protein stability index (Saccharomyces cerevisiae [1]; [4])	protein stability index (Saccharomyces cerevisiae [1]; [5])	protein stability index (Saccharomyces cerevisiae [1]; [6])	protein stability index (Saccharomyces cerevisiae [1]; [7])	protein stability index (Saccharomyces cerevisiae [1]; [8])	protein stability index (Saccharomyces cerevisiae [1]; [9])	protein stability index (Saccharomyces cerevisiae [2])
FFVFYICSCFLV	0.444 ± 0.037	0.476 ± 0.0043	0.389 ± 0.02	0.4843 ± 0.0041	0.457 ± 0.0071	0.372 ± 0.0097	0.442 ± 0.024	0.4 ± 0.047
FFYVFPFFIFRF	0.338 ± 0.046	0.31 ± 0.031	0.364 ± 0.04	0.521 ± 0.017	0.505 ± 0.025	0.362 ± 0.058	0.449 ± 0.0095	0.406 ± 0.065
FGLRVHPIVFIF	0.289 ± 0.032	0.269 ± 0.0053	0.374 ± 0.016	0.488 ± 0.018	0.0775 ± 0.022	0.0769 ± 0.016	0.0909 ± 0.047	0.128 ± 0.034
FGLVAYPLWYIS	0.504 ± 0.04	0.765 ± 0.0058	0.668 ± 0.014	0.777 ± 0.0099	0.0782 ± 0.031	0.0991 ± 0.0037	0.105 ± 0.029	0.18 ± 0.013
FGSFVVWGVWWG	0.458 ± 0.0071	0.4975 ± 0.0029	0.352 ± 0.036	0.563 ± 0.038	0.352 ± 0.015	0.356 ± 0.032	0.5069 ± 0.0015	0.508 ± 0.018
FGVLGCAWVWVG	0.394 ± 0.0091	0.528 ± 0.032	0.465 ± 0.033	0.625 ± 0.017	0.0888 ± 0.019	0.114 ± 0.021	0.103 ± 0.037	0.157 ± 0.045
FICLLFSCVYLG	0.51 ± 0.025	0.535 ± 0.013	0.464 ± 0.026	0.593 ± 0.039	0.3776 ± 0.0014	0.382 ± 0.026	0.5293 ± 0.005	0.41 ± 0.072
FIGVLVFSWLLF	0.244 ± 0.029	0.371 ± 0.0074	0.241 ± 0.035	0.412 ± 0.021	0.215 ± 0.0034	0.235 ± 0.024	0.381 ± 0.021	0.37 ± 0.03
FKVTWGLFYGSV	0.551 ± 0.098	0.653 ± 0.048	0.505 ± 0.034	0.581 ± 0.013	0.535 ± 0.059	0.548 ± 0.026	0.595 ± 0.011	0.44 ± 0.061
FLCVLYFFLCVE	0.218 ± 0.00042	0.3209 ± 0.0031	0.253 ± 0.03	0.404 ± 0.055	0.195 ± 0.01	0.224 ± 0.015	0.334 ± 0.022	0.417 ± 0.18
FLQIIIFSRVLF	0.455 ± 0.013	0.543 ± 0.059	0.377 ± 0.017	0.549 ± 0.0081	0.366 ± 0.026	0.364 ± 0.031	0.52 ± 0.011	0.467 ± 0.024
FLRWRVWVVVGW	0.187 ± 0.023	0.259 ± 0.024	0.199 ± 0.035	0.358 ± 0.027	0.18 ± 0.012	0.181 ± 0.021	0.332 ± 0.039	0.234 ± 0.0043
FLSRLVGFYFVV	0.606 ± 0.018	0.69 ± 0.0093	0.587 ± 0.026	0.733 ± 0.022	0.313 ± 0.006	0.312 ± 0.014	0.463 ± 0.014	0.361 ± 0.021
FLSVPHLLFLFI	0.608 ± 0.0063	0.634 ± 0.016	0.494 ± 0.021	0.619 ± 0.0054	0.49 ± 0.016	0.4689 ± 0.0032	0.6023 ± 0.0038	0.511 ± 0.017
FLTLQSPIQYIV	0.584 ± 0.032	0.732 ± 0.013	0.646 ± 0.053	0.7289 ± 0.0016	0.105 ± 0.0049	0.117 ± 0.017	0.124 ± 0.0086	0.171 ± 0.015
FLTSPSVWRYLF	0.623 ± 0.026	0.7196 ± 0.0049	0.693 ± 0.032	0.755 ± 0.0045	0.125 ± 0.046	0.139 ± 0.017	0.227 ± 0.017	0.153 ± 0.036
FLYIPLYCRLSF	0.286 ± 0.034	0.3 ± 0.006	0.302 ± 0.031	0.433 ± 0.019	0.209 ± 0.018	0.147 ± 0.028	0.343 ± 0.011	0.256 ± 0.027
FPTLHPAIPYLC	0.643 ± 0.013	0.672 ± 0.057	0.616 ± 0.017	0.7116 ± 0.0013	0.237 ± 0.01	0.282 ± 0.022	0.468 ± 0.02	0.458 ± 0.042
FRFGAKISLIVL	0.569 ± 0.019	0.565 ± 0.014	0.47 ± 0.018	0.584 ± 0.015	0.189 ± 0.0063	0.225 ± 0.033	0.42 ± 0.034	0.368 ± 0.064
FRHFPLLLSFVR	0.428 ± 0.025	0.4636 ± 0.0011	0.334 ± 0.033	0.512 ± 0.01	0.324 ± 0.015	0.323 ± 0.04	0.5 ± 0.0094	0.418 ± 0.062

Sequence	protein stability index (Saccharomyces cerevisiae [1]; [3])	protein stability index (Saccharomyces cerevisiae [1]; [4])	protein stability index (Saccharomyces cerevisiae [1]; [5])	protein stability index (Saccharomyces cerevisiae [1]; [6])	protein stability index (Saccharomyces cerevisiae [1]; [7])	protein stability index (Saccharomyces cerevisiae [1]; [8])	protein stability index (Saccharomyces cerevisiae [1]; [9])	protein stability index (Saccharomyces cerevisiae [2])
FRILVGCRVVLM	0.429 ± 0.0069	0.51 ± 0.077	0.355 ± 0.028	0.5047 ± 0.00065	0.311 ± 0.0097	0.343 ± 0.051	0.483 ± 0.016	0.426 ± 0.021
FSAVVCPTVFLC	0.51 ± 0.051	0.725 ± 0.019	0.603 ± 0.015	0.746 ± 0.019	0.0928 ± 0.02	0.0973 ± 0.022	0.0951 ± 0.0051	0.185 ± 0.063
FSCWLFMLCVFL	0.4339 ± 0.0012	0.459 ± 0.015	0.401 ± 0.013	0.466 ± 0.026	0.37 ± 0.017	0.316 ± 0.023	0.454 ± 0.025	0.393 ± 0.025
FSIFFFLLPSSL	0.539 ± 0.03	0.559 ± 0.0082	0.448 ± 0.017	0.604 ± 0.0097	0.443 ± 0.028	0.441 ± 0.025	0.5593 ± 0.0021	0.464 ± 0.042
FSLFYYIHLSVA	0.191 ± 0.002	0.211 ± 0.02	0.169 ± 0.034	0.2771 ± 0.002	0.0982 ± 0.0035	0.104 ± 0.028	0.197 ± 0.0021	0.192 ± 0.019
FSLGGVPYVFFV	0.628 ± 0.05	0.694 ± 0.012	0.587 ± 0.024	0.716 ± 0.01	0.195 ± 0.022	0.221 ± 0.029	0.4579 ± 0.0017	0.37 ± 0.019
FSLWSRRSITVY	0.04947 ± 0.00046	0.0405 ± 0.018	0.104 ± 0.042	0.113 ± 0.019	0.0595 ± 0.02	0.0899 ± 0.026	0.0886 ± 0.049	0.198 ± 0.057
FSPSHMLRIFCY	0.337 ± 0.089	0.355 ± 0.067	0.286 ± 0.033	0.443 ± 0.0051	0.1793 ± 0.00023	0.212 ± 0.0047	0.282 ± 0.0028	0.294 ± 0.055
FSRPTYYFIRHS	0.629 ± 0.048	0.696 ± 0.03	0.658 ± 0.038	0.69 ± 0.011	0.26 ± 0.021	0.272 ± 0.058	0.475 ± 0.048	0.403 ± 0.029
FSSRVFLIVGIY	0.45 ± 0.015	0.614 ± 0.05	0.33 ± 0.029	0.538 ± 0.021	0.2266 ± 0.0017	0.27 ± 0.023	0.4874 ± 0.0027	0.427 ± 0.025
FVCFSFFFPFLL	0.401 ± 0.0099	0.441 ± 0.0071	0.37 ± 0.033	0.5099 ± 0.001	0.163 ± 0.01	0.148 ± 0.016	0.238 ± 0.0042	0.237 ± 0.057
FVFCTCSFFFLW	0.5113 ± 0.0046	0.532 ± 0.011	0.421 ± 0.026	0.54 ± 0.021	0.374 ± 0.004	0.393 ± 0.029	0.5103 ± 0.00052	0.477 ± 0.0076
FVSGRFLFFFVL	0.52 ± 0.029	0.675 ± 0.0071	0.489 ± 0.018	0.699 ± 0.014	0.162 ± 0.0036	0.144 ± 0.018	0.208 ± 0.0074	0.204 ± 0.04
FVSSLLPLLTLL	0.555 ± 0.032	0.636 ± 0.013	0.608 ± 0.032	0.694 ± 0.014	0.142 ± 0.0036	0.141 ± 0.012	0.218 ± 0.0057	0.293 ± 0.033
FVVVGVLFLCVG	0.256 ± 0.0023	0.4122 ± 0.00071	0.278 ± 0.023	0.479 ± 0.011	0.258 ± 0.0065	0.277 ± 0.03	0.442 ± 0.007	0.367 ± 0.025
FWFSFSFLCHSY	0.384 ± 0.022	0.4491 ± 0.001	0.358 ± 0.032	0.4386 ± 0.001	0.386 ± 0.02	0.38 ± 0.0095	0.407 ± 0.02	0.422 ± 0.016
FYFLSFLLLLSP	0.143 ± 0.0096	0.132 ± 0.021	0.182 ± 0.024	0.294 ± 0.0094	0.223 ± 0.0038	0.156 ± 0.035	0.245 ± 0.024	0.176 ± 0.012
FYGVRFLVCVSA	0.0202 ± 0.0026	0.0332 ± 0.0048	0.111 ± 0.037	0.117 ± 0.015	0.0738 ± 0.018	0.105 ± 0.03	0.096 ± 0.0045	0.1575 ± 0.0005
GAWLAVCVVREG	0.493 ± 0.04	0.568 ± 0.014	0.398 ± 0.023	0.589 ± 0.0069	0.37 ± 0.007	0.405 ± 0.021	0.5526 ± 0.0021	0.479 ± 0.022
